Values of other authors in PMC9760430, “A stapled chromogranin A-derived peptide homes in on tumors that express αvβ6 or αvβ8 integrins” (International Journal of Biological Sciences, 2023).

Legend:
[1] = biological target: integrin αvβ8 (Homo sapiens) (UniProt P06756); settings: cited from earlier work
[2] = biological target: integrin αvβ6 (Homo sapiens) (UniProt P06756); settings: cited from earlier work
Chain of integrin αvβ6 (Homo sapiens) (P06756 31-992, chain 1 of 2): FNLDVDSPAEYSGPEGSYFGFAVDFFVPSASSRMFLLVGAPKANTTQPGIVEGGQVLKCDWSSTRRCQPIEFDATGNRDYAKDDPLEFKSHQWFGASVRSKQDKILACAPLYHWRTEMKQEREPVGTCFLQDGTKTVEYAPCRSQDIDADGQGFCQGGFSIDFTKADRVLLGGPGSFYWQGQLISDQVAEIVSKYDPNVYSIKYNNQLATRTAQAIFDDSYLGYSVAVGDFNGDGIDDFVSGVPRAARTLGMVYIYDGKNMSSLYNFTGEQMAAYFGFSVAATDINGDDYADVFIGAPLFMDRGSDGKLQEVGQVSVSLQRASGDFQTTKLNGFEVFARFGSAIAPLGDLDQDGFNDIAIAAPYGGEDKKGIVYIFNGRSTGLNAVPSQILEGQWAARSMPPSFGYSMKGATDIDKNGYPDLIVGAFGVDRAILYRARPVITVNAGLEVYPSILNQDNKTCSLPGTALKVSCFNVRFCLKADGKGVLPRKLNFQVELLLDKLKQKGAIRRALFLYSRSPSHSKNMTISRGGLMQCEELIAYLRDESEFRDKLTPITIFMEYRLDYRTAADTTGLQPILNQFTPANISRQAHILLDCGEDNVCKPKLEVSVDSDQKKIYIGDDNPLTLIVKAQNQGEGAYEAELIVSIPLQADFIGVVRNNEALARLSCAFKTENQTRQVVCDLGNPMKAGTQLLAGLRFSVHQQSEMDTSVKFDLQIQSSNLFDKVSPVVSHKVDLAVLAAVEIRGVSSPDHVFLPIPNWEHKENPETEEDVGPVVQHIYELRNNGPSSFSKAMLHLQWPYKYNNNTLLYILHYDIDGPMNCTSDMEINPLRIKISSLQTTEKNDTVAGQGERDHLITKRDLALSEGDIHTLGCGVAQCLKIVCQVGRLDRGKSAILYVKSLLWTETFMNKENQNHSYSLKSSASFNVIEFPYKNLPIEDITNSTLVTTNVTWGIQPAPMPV
Chain of integrin αvβ6 (Homo sapiens) (P18564 22-709, chain 2 of 2, further chain): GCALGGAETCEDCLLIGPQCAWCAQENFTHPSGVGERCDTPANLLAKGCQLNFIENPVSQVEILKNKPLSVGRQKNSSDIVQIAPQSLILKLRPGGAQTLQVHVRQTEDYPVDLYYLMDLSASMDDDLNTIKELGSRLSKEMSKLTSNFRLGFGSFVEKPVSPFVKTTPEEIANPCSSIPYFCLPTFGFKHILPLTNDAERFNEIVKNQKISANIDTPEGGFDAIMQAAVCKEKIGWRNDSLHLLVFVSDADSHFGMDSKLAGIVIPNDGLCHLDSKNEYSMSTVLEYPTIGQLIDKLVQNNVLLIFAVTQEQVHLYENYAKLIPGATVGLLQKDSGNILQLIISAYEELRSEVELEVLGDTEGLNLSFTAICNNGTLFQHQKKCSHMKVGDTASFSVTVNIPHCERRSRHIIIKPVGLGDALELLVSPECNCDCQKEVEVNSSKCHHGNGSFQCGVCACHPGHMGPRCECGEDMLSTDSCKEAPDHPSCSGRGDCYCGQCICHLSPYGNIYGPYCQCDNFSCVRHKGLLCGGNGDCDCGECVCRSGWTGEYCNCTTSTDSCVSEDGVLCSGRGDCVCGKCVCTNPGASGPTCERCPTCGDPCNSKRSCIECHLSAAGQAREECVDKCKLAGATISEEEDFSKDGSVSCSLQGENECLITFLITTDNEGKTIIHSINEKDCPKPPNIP

Chain of chromogranin A-derived peptide 5 (P10645 57-81): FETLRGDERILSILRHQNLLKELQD
Chain of integrin αvβ8 (Homo sapiens) (P06756 31-992, chain 1 of 2): as the sequence (P06756 31-992, chain 1 of 2) above
Chain of integrin αvβ8 (Homo sapiens) (P26012 43-684, chain 2 of 2, further chain): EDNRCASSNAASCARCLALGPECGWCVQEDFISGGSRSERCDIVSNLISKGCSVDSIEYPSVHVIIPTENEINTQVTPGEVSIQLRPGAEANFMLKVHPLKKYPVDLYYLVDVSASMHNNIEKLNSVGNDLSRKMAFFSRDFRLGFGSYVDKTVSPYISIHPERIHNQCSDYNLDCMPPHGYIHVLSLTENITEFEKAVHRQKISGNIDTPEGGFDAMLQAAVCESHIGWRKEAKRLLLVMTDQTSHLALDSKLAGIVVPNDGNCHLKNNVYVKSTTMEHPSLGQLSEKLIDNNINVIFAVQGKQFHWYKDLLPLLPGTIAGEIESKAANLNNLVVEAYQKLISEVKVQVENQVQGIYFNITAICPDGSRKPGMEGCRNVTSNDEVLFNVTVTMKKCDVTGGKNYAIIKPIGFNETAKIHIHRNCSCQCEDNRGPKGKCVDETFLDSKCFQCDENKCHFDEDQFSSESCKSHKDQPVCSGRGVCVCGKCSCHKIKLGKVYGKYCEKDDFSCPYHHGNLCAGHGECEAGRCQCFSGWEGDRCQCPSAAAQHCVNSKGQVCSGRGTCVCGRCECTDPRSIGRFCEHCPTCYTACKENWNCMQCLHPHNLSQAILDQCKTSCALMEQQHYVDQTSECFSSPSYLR

chromogranin A-derived peptide 5 (from UniProt P10645)
Ki [1]: 3.2 nM | Ki [2]: 0.6 nM
